Legend:
[1] = tested on: SHEL (synthetic human elastin; recombinant human tropoelastin splice form)
[2] = tested on: serine protease site peptide (SPS-peptide), N-AAKAQLRAAAGLGA-C
[3] = tested on: SHELδ26A (SHEL lacking the sequence of exon 26A)
[4] = tested on: GST-SHEL (glutathione S-transferase fusion of SHEL)
GST-SHEL (glutathione S-transferase fusion of SHEL), sequence (chain, as listed by the source): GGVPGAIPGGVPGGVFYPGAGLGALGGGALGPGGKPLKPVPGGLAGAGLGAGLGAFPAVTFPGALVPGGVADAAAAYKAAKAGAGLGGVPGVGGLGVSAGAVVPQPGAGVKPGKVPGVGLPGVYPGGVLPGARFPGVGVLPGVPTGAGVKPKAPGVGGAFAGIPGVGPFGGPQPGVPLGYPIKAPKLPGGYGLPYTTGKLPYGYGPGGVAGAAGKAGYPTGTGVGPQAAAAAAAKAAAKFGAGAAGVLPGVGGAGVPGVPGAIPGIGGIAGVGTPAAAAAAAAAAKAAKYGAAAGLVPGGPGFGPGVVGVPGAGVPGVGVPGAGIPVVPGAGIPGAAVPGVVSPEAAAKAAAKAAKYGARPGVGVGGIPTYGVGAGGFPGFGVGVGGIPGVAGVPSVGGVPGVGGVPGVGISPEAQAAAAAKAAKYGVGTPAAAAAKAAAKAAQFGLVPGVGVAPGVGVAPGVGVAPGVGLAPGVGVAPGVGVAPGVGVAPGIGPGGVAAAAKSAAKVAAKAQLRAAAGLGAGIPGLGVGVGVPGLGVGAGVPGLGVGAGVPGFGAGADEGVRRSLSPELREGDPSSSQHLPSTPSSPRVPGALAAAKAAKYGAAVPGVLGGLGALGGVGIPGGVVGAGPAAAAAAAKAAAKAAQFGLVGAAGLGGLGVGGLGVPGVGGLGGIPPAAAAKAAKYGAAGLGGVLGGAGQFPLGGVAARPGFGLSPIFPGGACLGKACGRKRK

human plasma kallikrein (Sigma), sequence (chain, as listed by the source): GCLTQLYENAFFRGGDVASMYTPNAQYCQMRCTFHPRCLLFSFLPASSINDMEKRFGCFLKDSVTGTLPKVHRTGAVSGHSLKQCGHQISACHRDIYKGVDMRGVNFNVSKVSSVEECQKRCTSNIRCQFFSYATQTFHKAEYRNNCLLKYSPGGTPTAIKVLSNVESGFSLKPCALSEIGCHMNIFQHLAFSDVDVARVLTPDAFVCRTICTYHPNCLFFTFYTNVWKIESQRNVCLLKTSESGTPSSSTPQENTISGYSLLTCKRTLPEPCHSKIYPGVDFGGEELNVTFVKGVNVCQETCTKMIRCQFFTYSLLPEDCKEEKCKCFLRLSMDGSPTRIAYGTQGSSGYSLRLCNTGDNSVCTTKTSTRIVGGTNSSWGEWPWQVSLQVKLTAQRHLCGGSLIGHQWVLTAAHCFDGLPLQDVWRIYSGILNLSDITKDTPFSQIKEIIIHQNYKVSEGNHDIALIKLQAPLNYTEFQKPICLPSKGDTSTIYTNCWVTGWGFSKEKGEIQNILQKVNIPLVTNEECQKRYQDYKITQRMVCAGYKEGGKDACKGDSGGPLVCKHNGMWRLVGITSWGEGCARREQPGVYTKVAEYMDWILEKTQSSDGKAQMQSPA
SHEL (synthetic human elastin; recombinant human tropoelastin splice form), sequence (chain, as listed by the source): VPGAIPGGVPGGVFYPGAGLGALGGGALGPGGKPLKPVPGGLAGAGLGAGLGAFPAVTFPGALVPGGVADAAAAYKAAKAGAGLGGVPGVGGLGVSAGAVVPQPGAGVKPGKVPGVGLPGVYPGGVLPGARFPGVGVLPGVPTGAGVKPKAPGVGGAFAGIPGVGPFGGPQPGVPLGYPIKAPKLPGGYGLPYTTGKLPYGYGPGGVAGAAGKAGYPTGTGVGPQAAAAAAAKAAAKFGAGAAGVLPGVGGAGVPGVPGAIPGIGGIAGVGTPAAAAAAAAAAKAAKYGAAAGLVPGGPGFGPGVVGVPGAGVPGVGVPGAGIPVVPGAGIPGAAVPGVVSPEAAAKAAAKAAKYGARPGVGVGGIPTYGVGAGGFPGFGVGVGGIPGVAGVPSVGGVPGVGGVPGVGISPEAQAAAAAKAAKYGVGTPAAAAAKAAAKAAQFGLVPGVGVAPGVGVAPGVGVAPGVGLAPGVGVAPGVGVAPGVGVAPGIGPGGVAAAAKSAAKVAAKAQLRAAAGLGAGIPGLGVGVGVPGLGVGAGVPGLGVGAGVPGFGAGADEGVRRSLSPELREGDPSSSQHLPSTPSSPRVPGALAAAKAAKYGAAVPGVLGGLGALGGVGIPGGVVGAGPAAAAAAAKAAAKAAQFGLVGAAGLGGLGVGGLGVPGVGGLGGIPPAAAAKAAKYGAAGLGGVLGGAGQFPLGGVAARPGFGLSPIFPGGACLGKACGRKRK
SHELδ26A (SHEL lacking the sequence of exon 26A), sequence (chain, as listed by the source mutant): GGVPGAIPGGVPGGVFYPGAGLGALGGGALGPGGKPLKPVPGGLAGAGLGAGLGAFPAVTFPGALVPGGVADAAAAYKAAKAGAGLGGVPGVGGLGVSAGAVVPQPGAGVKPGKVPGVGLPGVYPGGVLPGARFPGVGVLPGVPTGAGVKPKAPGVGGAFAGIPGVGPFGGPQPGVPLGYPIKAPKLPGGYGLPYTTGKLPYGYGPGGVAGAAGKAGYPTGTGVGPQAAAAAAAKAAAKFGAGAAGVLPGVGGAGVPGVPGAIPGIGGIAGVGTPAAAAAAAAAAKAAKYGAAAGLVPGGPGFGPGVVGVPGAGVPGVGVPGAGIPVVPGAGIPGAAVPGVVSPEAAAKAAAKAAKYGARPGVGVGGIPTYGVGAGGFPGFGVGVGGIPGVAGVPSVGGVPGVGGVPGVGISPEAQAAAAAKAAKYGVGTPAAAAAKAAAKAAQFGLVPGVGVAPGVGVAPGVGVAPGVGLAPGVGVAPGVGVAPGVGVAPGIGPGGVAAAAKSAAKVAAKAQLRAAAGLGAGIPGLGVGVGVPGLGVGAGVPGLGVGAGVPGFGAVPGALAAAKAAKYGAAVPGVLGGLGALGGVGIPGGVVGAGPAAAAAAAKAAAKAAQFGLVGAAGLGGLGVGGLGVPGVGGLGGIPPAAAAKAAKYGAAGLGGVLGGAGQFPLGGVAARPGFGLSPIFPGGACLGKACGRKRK

| Substance | degradation of SHEL by human plasma kallikrein, SDS-PAGE [1] | amount of full-length SHEL after kallikrein digestion with a 100:1 molar excess of SPS-peptide, SDS-PAGE and densitometry (also seen with SHELδ26A, not shown) [2] | degradation of SHELδ26A by human plasma kallikrein, SDS-PAGE [3] | degradation of SHEL by thrombin, SDS-PAGE [1] | amount of full-length SHEL after thrombin digestion with SPS-peptide, SDS-PAGE and densitometry [2] | degradation of SHELδ26A by thrombin, SDS-PAGE [3] | cleavage of GST-SHEL by thrombin, SDS-PAGE [4] |
| --- | --- | --- | --- | --- | --- | --- | --- |
| human plasma kallikrein (Sigma) | Three major fragments were identified by SDS-PAGE (FIG. 8) estimated to be 45, 22 and 18 kDa | more full-length SHEL was evident compared with controls using trypsin, plasmin, kallikrein and serum | The pattern of degradation of SHELδ26A was somewhat different, with the 22 and 18 kDa fragments missing and replaced by a 15 kDa fragment | – | – | – | – |
| human thrombin (Sigma) | – | – | – | four major fragments were identified by SDS-PAGE estimated at 45, 34, 22 and 13 kDa | SPS-peptide also resulted in more full-length SHEL using thrombin and HLE but to a lesser extent | The patterns of degradation seen with SHELδ26A was slightly different with the 22 kDa fragment reduced in size to about 15 kDa | Thrombin is able to cleave GST-SHEL extensively and in a reproducible manner |

From patent US7229788
